Reference: the DeepSol protein solubility set

Test: soluble on expression in E. coli; label from the status in PepcDB or PDB records

| Sequence | soluble on expression in E. coli |
| --- | --- |
| GPGSMRTSADIACLLAQYIKGQPEERLVTAAAYPDIFTPDVVEELNGAYALLLDAQRQAREACCAVDDVTREHGLPTALRITPKEQNELDVTEEMMIKRFAEEVAVYLSEGGAPNISSDAEPTSVLNSHCVDLRWHQHSTLVLHVLSYLPLEFTLSVAENVCKGWREWLFIPEFSGMFWHECTMREYPECVRMLLLSGGGDARQCDWRTFAMLCCSVDEEDISGEGTRSPDLVHS | not soluble |
| MAYKHILIAVDLSPESKVLVEKAVSMARPYNAKISLIHVDVNYSDLYTGLIDVNLGDMQKRISEETHHALTELSTNAGYPITETLSGSGDLGQVLVDAIKKYDMDLVVCGHHQDFWSKLMSSARQLINTVHVDMLIVPLRDEEE | not soluble |
| MSHVELQPGFDFQQAGKEVLAIERECLAELDQYINQNFTLACEKMFWCKGKVVVMGMGKSGHIGRKMAATFASTGTPSFFVHPGEAAHGDLGMVTPQDVVIAISNSGESSEITALIPVLKRLHIPLICITGRPESSMARAADVHLCVKVAKEACPLGLAPTSSTTATLVMGDALAVALLKARGFTAEDFALSHPGGALGRKLLLRVNDIMHTGDEIPHVKKTASLRDALLEVTRKNLGMTVICDDNMMIEGIFTDGDLRRVFDMGVDVRQLSIADVMTPGGIRVRPGILAVEALNLMQSRHITSVMVADGDHLLGVLHMHDLLRAGVV | soluble |
| GSHMLEFSEWYSDILEKAEIYDVRYPIKGCGVYLPYGFKIRRYTFEIIRNLLDESGHDEALFPMLIPEDLLAKEAEHIKGFEDEVYWVTHGGKTQLDVKLALRPTSETPIYYMMKLWVKVHTDLPIKIYQIVNTFRYETKHTRPLIRLREIMTFKEAHTAHSTKEEAENQVKEAISIYKKFFDTLGIPYLISKRPEWDKFPGAEYTMAFDTIFPDGRTMQIATVHNLGQNFSKTFEIIFETPTGDKDYAYQTCYGISDRVIASIIAIHGDEKGLILPPIVAPIQVVIVPLIFKGKEDIVMEKAKEIYEKLKGKFRVHIDDRDIRPGRKFNDWEIKGVPLRIEVGPKDIENKKITLFRRDTMEKFQVDETQLMEVVEKTLNNIMENIKNRAWEKFENFITILEDINPDEIKNILSEKRGVILVPFKEEIYNEELEEKVEATILGETEYKGNKYIAIAKTY | soluble |
| KEDMATSELNKTVQKVEEVSKKIKNKAKPKVVWASVYEGSAYIAPKDSYVDNMIKMAGGINACASIDSNEGRVSIEQLHEVAKDADIFVYSSSSDYAPNLDSIKSSAPVLADLDVVKNGNLWVFAPDYYQSVDKTDELIVDLVEMFHPGTTGEKIKHYINYDK | not soluble |
| MGSDKIHHHHHHMNEIVKLISKHNDVRTGAINLIVSENRMSPAALAALSSDLASRYAAPFYAGTDISQEIVAITEQKAKKLFNAEYVNISPISGSASLMAVVFALTSPGDKVGRVPPFFPGGGYPFNYEVFDRVSLPLPFDDEEWQLDLEATLELLEREKPKLVILGASIFTVPMPVREVADLVHSYGGIVAYDGSHSLGLIVGKQYQDPLNEGADILFGSTHKTFPGPQGGIIVTNSKELNDRIDIVSNFTPLNGPTMICNPHLARIASLGIVIDEVPWERYAEQVVKNSRAFANTLQAKGYEMRGQSTKKFSELSYCHQVLPKLDRQMGQGYRDKLKQHNIHVDGFMRVGTAEITRLGYVEADCTRISEIMAEIVSSNQDVIPSLRHEVVEMNANHQHIVM | not soluble |
| MSLEHPLQRFFHSMRAKRPFDWVRFQRRDLLLIDHPLCQAVFSRQGAQLLHFQPQGERPLLWCAGEWPALSSAPVRGGIPVCWPWFGSHPNGSEWPQQGWARQREWRLLDAYADESKVVVSWQLDLEDWHVRLDARLGQRLELELCSYHEEDDDCLFSFALQPYWRVGALSRVVVHGMELESARGQRGASRIPGTWIPRGAVKQVLYHPGSLVLEDGGWNRRLRIDKNVSAGSVIWHPGSRPVEQVEPGEAERFLCIGAAGYRPGGLILAPGERMRLSLAAGLQEGHHHHHH | soluble |
| MGSDKIHHHHHHMKIKVVLSGYGTVGREFIKLLHEKCSYIYETYGIELVVSGVLGRNVAIHNEDGLSIHNLLMYGSSSAAIEKYIEYHPEERATDNISGTVLVESTVTNLKDGNPGKQYIKQAIEKQMDIVAISKGALVTNWREINEAAKIANVRIRYSGATAAALPTLDIGQFSLAGCHVKKIEGILNGTTNYILTKMNEEDITFEEALKEAQRKGIAETNPILDVSGSDSACKLLLLTNSLMGTEHMLTDIYIKGIEHVTKQQIRNAKEQNKFIKLIASAYKDQDGKVTLKVEPYEIDKDHPLANVNGTEKGITFFTDTMGQVTTIGGASNPRGAAAAALKDIINLYRKDLSLSNR | not soluble |
| MAHHHHHHMLNKGFTATKIIGKRCFQWWDNLNTSWKFAIGFSVLFPPLWNYNERRKAREKQVYYNKSIRDYVFFDIAIENKYVGRVLIGLYSDQVPLSVENFIQLAEGYKVKDKYIGYRNTFIHKIYPGIGLVGGNVLNDKEGLSIYGKKFPDENFDMEFVQDGDVALFNEGPHSNSSQFIITFSPMPILHKHNVVIGTVLKGMDIIRMIENVGTKLGNPMYNVKIINCGLYRSLEQDGPPFFNMMHISDKGNKNIISKKEFESLSEQQRQSLMEEIGKSEKRR | soluble |
| MRGHHHHHHHGSMTIEFVGVEKIYPGGARSVRGVSFQIREGEMVGLLGPSGSGKTTILRLIAGLERPTKGDVWIGGKRVTDLPPQKRNVGLVFQNYALFQHMTVYDNVSFGLREKRVPKDEMDARVRELLRFMRLESYANRFPHELSGGQQQRVALARALAPRPQVLLFDEPFAAIDTQIRRELRTFVRQVHDEMGVTSVFVTHDQEEALEVADRVLVLHEGNVEQFGTPEEVYEKPGTLFVASFIGESNVWTRAVQNGRIEVAGAALPVDPAVSEGSEVAVVVRPKDVELQPASEREAHAQVVRSAFKGSYSACWIRTKDGEVWEVHVPSADRHRWSPGAWVHMNVTRWFIFPR | soluble |
| MGSDKIHHHHHHMESHVNILKSDVKIDPSRSPFMKERVEVMYEGDDLESILEQVKEIELGEMTFKVIFVKINDLEGENKIEYAERRIIERRIGDCIDAEADVRNPERTFGIVPLGGRWYFGHYVESKPVWYHHIKKPRSYSTSLSTRVARSVANIAVPNPEGVRAIDPCCGIGTVVVEALSMGINIVGRDISPLVAIGARENIAHFGFDGTITKGPIEEITENYDVAIIDMPYDLFTHATPENQLSILSSARRIAKKVVVVTMETMDDMIHEAGFEIIDRCTTKKGTFSRQILVCE | not soluble |
| ELSYRLLDQIYINPAVILKREEQYIKDFQSYVTEQKLSMNDRKKIKEFTKTDWTIVMALYQENDIIFSSDSRFIVPLPADEYGETIKDTSEASGVFNVTFTDGAVQAALVYTGYENYQS | soluble |
| MTEEFNESMINDIKEGDKVTGEVQQVEDKQVVVHINGGKFNGIIPISQLSTHHIENPSEVVKVGDEVEAYVTKIEFDEENDTGAYILSKRQLETEKSYEYLQEKLDNDEVIEAEVTEVVKGGLVVDVGQRGFVPASLISTDFIEDFSVFDGQTIRIKVEELDPENNRVILSRKAVEQLENDAKKASILDSLNEGDVIDGKVARLTNFGAFINIGGVDGLVHVSELSHGTCSNTRRSCVSRLEHHHHHH | soluble |
| MGSDKIHHHHHHMNPNFTWDDLQFFLAVARTGQLSTAARRLRTSHATVSRRIDRLEFALKVKLFERNPRGYVLTTMGQRFVETAERMERETEQLQLDISDGMTAQRGVVRLSTLEGFGNFFLADRLGEFAERYPNISLELVAIQQIMSLSRKEADIAVALAAPKAGAYHAEVLTPYTLHVYGARSYLAGQPPIRTRSDLGSHRFVGYIDDMIFTPGLDYLGEIQPGLRAHFQSSSILTQLKAVRQGLGLCVLPHFMAKDEPNLEIVLPDEIELKRTYWLICHRDLIAIPRVRAVRDFLVDAAVENRGCFLRETPFALTGPRRVLERQ | not soluble |
| MSRIEAVFFDCDGTLVDSEVICSRAYVTMFQEFGITLDPEEVFKRFKGVKLYEIIDIVSLEHGVTLAKTEAEHVYRAEVARLFDSAIEGAGALLSAITAPMCVVSNGPNNKMQHSMGKLNMLHYFPDKLFSGYDIQRWKPDPALMFHAAKAMNVNVENCILVDDSVAGAQSGIDAGMEVFYFCADPHNKPIVHPKVTTFTHLSQLPELWKARGWDITA | not soluble |
| MPQYKGSREVISIHVGQAGVQIGNACWELFCLEHGIQPDGYHVEDDTYDEETETINTFFAETAGGKHVPRCLFVDLEPTVVDEVRTGTYRSLFHPEQLLSGKEDAANCYARGRYTIGREMIDVVMDRVKRLAENCNGLQGFVIFHSFGGGTGSGFLSLLMERLSTEYGKKPKLEFAIYPAPQVSTSMVEPYNSILMTHTTLEHSDCTFMVDNEAIYDICRRNLDLARPTYTNLNRLVAQIISSITASLRFEGALNVDLTEFQTNLVPYPRIHFPLVTYAPLVSAERASHEQNTVSDMTHACFEPGYQMVKCDPRRGKYMAVCLLYRGDVVPKDINSAIAAVKTKRTVQFVEWCPTGFKVGINYQPPTVVPGGDLGKQTRSVCMISNTTAIAEAWARLDHKFDLMYAKRAFVHWYVGEGMEEGEFSEAREDMAALEKDYEEIGEDELPDDIDDQSYRGRSSGSRY | not soluble |
| MEFPDLGAHCSEPSCQRLDFLPLKCDACSGIFCADHVAYAQHHCGSAYQKDIQVPVCPLCNVPVPVARGEPPDRAVGEHIDRDCRSDPAQQKRKIFTNKCERSGCRQREMMKLTCDRCGRNFCIKHRHPLDHECSGEGHQTSRAGLAAISRAQGLASTSTAPSPSRTLPSSSSSSRATPQLPTRTASPVIALQNGLSEDEALQRALELSLAEAKPQVLSSQEEDDLALAQALSASEAEYQQQQAQSRSLKPSNCSLC | soluble |
| GDYTTLTFRVSTHIEEAAPTSCPAEHPHTVAQGDYLIVAKSNRMSTGNDELGSILMRAFVNAIGELDRLPSHIILYNTGVLLAVEGTDTAETLAELNKKHGIPIIVCGTCADYYEVKDKLRIGTISNMYRIMQLQVATRHIIYP | not soluble |
| MSTHIQRSALLPYPARALFDLVNDVKRYPEFLPWCSASQVLEESESLMRAELTVAKGSLSQRFTTRNVLVPGASIEMNLENGPFTELHGVWQFKALGEKACKITLDLTFDYAGPLVKATLGPLFTQAANTMVDAFCQRAKQLYG | not soluble |
| MSLDSRLPAFRNLSPAARLDHIGQLLGLSHDDVSLLANAGALPMDIANGMIENVIGTFELPYAVASNFQINGRDVLVPLVVEEPSIVAAASYMAKLARANGGFTTSSSAPLMHAQVQIVGIQDPLNARLSLLRRKDEIIELANRKDQLLNSLGGGCRDIEVHTFADTPRGPMLVAHLIVDVRDAMGANTVNTMAEAVAPLMEAITGGQVRLRILSNLADLRLARAQVRITPQQLETAEFSGEAVIEGILDAYAFAAVDPYRAATHNKGIMNGIDPLIVATGNDWRAVEAGAHAYACRSGHYGSLTTWEKDNNGHLVGTLEMPMPVGLVGGATKTHPLAQLSLRILGVKTAQALAEIAVAVGLAQNLGAMRALATEGIQRGHMALHARNIAVVAGARGDEVDWVARQLVEYHDVRADRAVALLKQKRGQ | soluble |
| MLPQLKAQFKEREPDVREYNADILVVGGGLGGVAAALGALRNGRSVILTEAFEWIGGQLTSQAVPPDEHSWVEQFGITASYRALRTGVRQYYRDHYPLTDAARADLTLNPGDGNVSRLCHEPRVSLAVMEAMLAPFAAGGKLTILKPYEPIAADVEGDTVRAVTLRHCNTSDLVSCSARYIIDATELGDLLPLTATDYVTGFEAQSETGEPSAPAEAQPHNQQAVSICFAVDQVDGNHVIDKPARYDHWRQVAPEFWGGPLLSWDSPNPRTLERSRRFFDPNPVDNATRDVADQRHSAGDMSLWIFRRIAARHTFRPGAYASDICLVNWPMIDYFEAPIIDVTPEQYAERLADAASLSYSMFYWMQTEAPRPDGGQGFPGLRLRGDITGTEHGLAMAPYIRESRRIRALTTVVEQDLSLAVRGDRGAVHYPDSIGIGMYRIDLHPSTGGDNYIDVGACPFEIPLGALISRHKTNLLAASKNIGTTHITNGCYRLHPVEWNIGEVAGMLAAYCLDKGETPHGVHADEKRLAEFHTHIERQGVERHWPDIRGYLEHHHHHH | not soluble |
